This assay deals with HLA-A*11:01. The assay is described as follows: IEDB peptide-MHC binding, purified MHC/competitive/radioactivity; ≥ and ≤ were set here for values at or beyond the usual limits of such assays.
Setting [1] is: source organism: Hepatitis B virus.
Setting [2] is: source organism: Influenza A virus (A/Puerto Rico/8/1934(H1N1)).
[3] abbreviates: source organism: Human immunodeficiency virus 1.

The record followed here is the Immune Epitope Database (IEDB).

The term IC50 denotes the concentration that inhibits the measured activity by half. Consider ESLFRAVITK, for which the IC50 (source organism: Homo sapiens) turned out to be 1150 nM. For the sequence CALPFTSAR, under setting [1], the IC50 amounted to 316 nM.

On to LSLDVSAAFY, for which, under setting [1], the IC50 was 545 nM. Consider GVTAACSHAGK, for which, under setting [2], the IC50 was determined as 30 nM. Regarding RAKWNNTLK, the IC50 under setting [3] turned out to be 188 nM. Same read-out and setting: with KVLFLDGIDK the figure was 7.7 nM; with AVDLSHFLK, 5 nM.

On to PVTIGECPK, for which the IC50 under setting [2] is 2.6 nM. For the sequence GTKVVPRGK, the IC50 under setting [2] stood at 72 nM. The same measure, in the same setting: with RMGVQMQRFK the figure was 94 nM. As for QIYQEPFKNLK, the IC50 under setting [3] came out at 21 nM.

Take ATQIPSYKK: the IC50 (source organism: Homo sapiens) was 128 nM. On to QMAVFIHNFK, for which, under setting [3], the IC50 turned out to be 8.4 nM. In the case of TTDLEAYFK, the IC50 under setting [1] was 6.5 nM. For the sequence AVFIHNFKRK, the IC50 under setting [3] stood at 7.1 nM. KVYLAWVPAHK: the IC50 under setting [3] is 7.6 nM. Regarding IMPARFYPK, the IC50 under setting [1] came out at 4.1 nM.

With GSTHVSWPK, the IC50 under setting [1] worked out at 3.1 nM. ASQIYAGIK: the IC50 under setting [3] is 18 nM. For the sequence NVKNLYEKVK, the IC50 under setting [2] worked out at 51 nM. Take RLADEGLNR: the IC50 under setting [1] came out at 245 nM. In the case of MTKILEPFR, the IC50 under setting [3] turned out to be 378 nM. Still for that read-out and setting: with YLAWVPAHK the figure was 106 nM. Take KVFVLGGCR: the concentration for half-maximal inhibition (IC50) under setting [1] was 6.5 nM.

For the sequence GTDNSVVLSR, the IC50 under setting [1] came to 107 nM. On to GIPHPAGLK, for which the IC50 under setting [3] came to 35 nM.

As for LTEKEGSYPK, the IC50 under setting [2] stood at 121 nM.

Take AVNHYFKTR: under setting [1], the IC50 amounted to 61 nM. As for TVQPIVLPEK, the IC50 under setting [3] is 2.4 nM. In the case of LACAGLAYK, the IC50 (source organism: Plasmodium falciparum) amounted to 207 nM.
